Measurements taken from the supplement of paper PMC10724198.
± gives the standard deviation of the averaged measurements.

What follows are sequences tested on Saccharomyces cerevisiae (assay: protein stability index of tFT-peptide fusion (C-terminal peptide) (PSI (0-1 scale)); higher = more stable (slower turnover)). Settings: genetic background: wild type; temperature: 30 C.
Description: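 Multiplexed protein stability (MPS) profiling in S. cerevisiae. Random 12-aa peptides (tFT-X12 library) are fused to the C-terminus of a sfGFP-mCherry tandem fluorescent timer, after mCherry and a GGGS linker. Cells are FACS-sorted into 8 mCherry/sfGFP bins and deep-sequenced. The protein stability index (PSI) is the read-weighted bin average, scaled from 0 (unstable) to 1 (stable). Only peptides with >10 reads are reported; cells were grown at 30 °C in SC-His with glucose.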
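Note: PSI is a weighted mean of sequencing reads over stability bins, variants kept only with over 10 reads, mCherry proximal and sfGFP distal, peptide attached via GGGS linker.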

Sequence | protein stability index
GDRSKECAMKNG | 0.67 ± 0.013
GDVLLLGGAGER | 0.671 ± 0.07
GDVPHRIEGEFL | 0.788 ± 0.038
GDYITIGGGLIW | 0.759 ± 0.017
GEAEGGEEYGEG | 0.636 ± 0.017
GEARVGGRWWSK | 0.7722 ± 0.0071
GECASVFSSGFF | 0.72 ± 0.17
GEDRLSPVGWDR | 0.702 ± 0.035
GEGNRVPNPSRP | 0.669 ± 0.022
GEGRGRTETEMK | 0.682 ± 0.033
GEGTQGVSIGPR | 0.711 ± 0.015
GEIGVRGYQAEE | 0.739 ± 0.029
GEKEARRKKVSM | 0.749 ± 0.071
GEKKTNHEPGAS | 0.759 ± 0.06
GELLLVAGMHWL | 0.681 ± 0.023
GERHTGTLRRPD | 0.701 ± 0.065
GERLGECGGGVG | 0.6652 ± 0.0021
GESAWWRSFGDV | 0.791 ± 0.11
GESRVGMRRGGR | 0.667 ± 0.029
GETGRGRRPRSQ | 0.667 ± 0.062
GEVGTVEGGATG | 0.69596 ± 7e-05
GEVMLRYQRISF | 0.713 ± 0.018
GFEWWCQSVSVG | 0.688 ± 0.018
GFGWYVPESWSS | 0.616 ± 0.043
GFIDGSTVRTCL | 0.64 ± 0.054

Sequence | protein stability index
GFISVGVYPVVR | 0.677 ± 0.0081
GFLGVDLVYVVH | 0.567 ± 0.033
GFTHAPTVPSPE | 0.745 ± 0.017
GFTLCPVSLGYF | 0.688 ± 0.017
GGAGGTGVRCGT | 0.669 ± 0.017
GGAPRSSGRAGE | 0.691 ± 0.028
GGAVAVRGGSAA | 0.636 ± 0.035
GGCCLWVGFLGG | 0.7016 ± 0.0021
GGCEWWAWGRGG | 0.727 ± 0.032
GGCIGAKSVGGG | 0.652 ± 0.027
GGCRRGVQLFWD | 0.7236 ± 0.0023
GGCVGVLGGGGF | 0.659 ± 0.016
GGDRGHVTGEVG | 0.657 ± 0.06
GGEKEREEEDKE | 0.625 ± 0.056
GGFGGAWRGWAP | 0.692 ± 0.016
GGFLATAGLSVT | 0.673 ± 0.056
GGFNARVSPTRL | 0.709 ± 0.1
GGFRSVCGGVNW | 0.665 ± 0.011
GGGAGRGSRVWG | 0.746 ± 0.076
GGGAIFDRLLCL | 0.6545 ± 0.0049
GGGARWGWGGRM | 0.648 ± 0.033
GGGCARRRGGRV | 0.6958 ± 0.0049
GGGDFDTLWDSR | 0.789 ± 0.03
GGGDRRRTARLS | 0.578 ± 0.027
GGGEGRGGVEYG | 0.64 ± 0.037

Sequence | protein stability index
GGGERLDDIVGG | 0.801 ± 0.081
GGGEVLFHLRRA | 0.673 ± 0.019
GGGEYHTIMRTT | 0.786 ± 0.2
GGGGCDVGGCVG | 0.675 ± 0.039
GGGGGEAGVIGR | 0.892 ± 0.15
GGGGGGACRPVG | 0.659 ± 0.094
GGGGGGAEGAGW | 0.711 ± 0.02
GGGGGGGCGGDR | 0.654 ± 0.08
GGGGGGGGGGGV | 0.709 ± 0.053
GGGGGGGGRGWG | 0.63411 ± 1.7e-05
GGGGGGGVAGGV | 0.715 ± 0.041
GGGGGGIGVGMG | 0.705 ± 0.024
GGGGGGKEAVVR | 0.649 ± 0.053
GGGGGMEPGCGP | 0.682 ± 0.043
GGGGGREPGCGP | 0.707 ± 0.01
GGGGGVGGVGRV | 0.668 ± 0.062
GGGGGVGVEGEP | 0.723 ± 0.067
GGGGGWVRWASG | 0.689 ± 0.064
GGGGLGRGKGCW | 0.706 ± 0.03
GGGGMASRGGNK | 0.685 ± 0.027
GGGGMGGCSDDG | 0.742 ± 0.17
GGGGRAALRWYG | 0.651 ± 0.014
GGGGSGRRIGCR | 0.696 ± 0.035
GGGGSRGRVGDI | 0.7182 ± 0.0022
GGGLLMVAASRC | 0.634 ± 0.014

Sequence | protein stability index
GGGRAAIVRGGW | 0.682 ± 0.014
GGGRAEPLEPGV | 0.648 ± 0.07
GGGRGGAAEGAV | 0.781 ± 0.07
GGGRRWPGGSGG | 0.775 ± 0.075
GGGRVSAGGDSG | 0.751 ± 0.071
GGGVGLGGYGEG | 0.636 ± 0.055
GGGVGMLRRSGG | 0.689 ± 0.054
GGGVSFWVGVVA | 0.656 ± 0.042
GGGWDWWFGVPG | 0.792 ± 0.13
GGGWGGEAVRVW | 0.65 ± 0.055
GGGWGRVALGQG | 0.612 ± 0.015
GGHRRQGKKFTP | 0.711 ± 0.067
GGKARKRKDKRA | 0.645 ± 0.1
GGKNVKCLDRGL | 0.693 ± 0.014
GGLNIGIGYSVG | 0.643 ± 0.1
GGLRWVLGAQAV | 0.707 ± 0.063
GGLVGSSVWGWG | 0.703 ± 0.04
GGLVVRCGVTSS | 0.695 ± 0.15
GGNKETKITRIE | 0.698 ± 0.011
GGPLDASICRSS | 0.694 ± 0.061
GGPPPHHKTRPG | 0.603 ± 0.063
GGPRDNEGSWWV | 0.7122 ± 0.0029
GGQGRYSAPPSR | 0.624 ± 0.02
GGREDGKRGRQK | 0.684 ± 0.055
GGRGFRGVLRSN | 0.696 ± 0.069

Sequence | protein stability index
GGRGGEGLVREG | 0.667 ± 0.019
GGRGRGMGGIFG | 0.667 ± 0.053
GGRGRRAGGSSG | 0.745 ± 0.016
GGRGRRRGGVGG | 0.701 ± 0.011
GGRGRRWAGPRC | 0.702 ± 0.039
GGRGVVVGQGAG | 0.705 ± 0.027
GGRGWAGRGGSG | 0.707 ± 0.052
GGRPRGLVAGAA | 0.657 ± 0.022
GGRTEYILQLKK | 0.686 ± 0.021
GGRVARRGAERG | 0.654 ± 0.14
GGRVGGSMGVGG | 0.659 ± 0.028
GGRWMWWAGAAG | 0.79 ± 0.3
GGSSWSLGGGCG | 0.713 ± 0.023
GGTGRRRVGRRG | 0.696 ± 0.018
GGTVAGLYILGF | 0.6301 ± 0.001
GGVAADGGGGRG | 0.675 ± 0.043
GGVAAVGGPWGN | 0.75 ± 0.052
GGVASGGCFWGR | 0.6761 ± 0.0053
GGVECVRGTGGR | 0.659 ± 0.046
GGVGLVGEVCPI | 0.688 ± 0.028
GGVGRGADASLA | 0.622 ± 0.017
GGVPGEGTGGRE | 0.644 ± 0.027
GGVRVPRVDVVG | 0.618 ± 0.042
GGWAGGRQGCGG | 0.77 ± 0.012
GGWAHGEGAGDC | 0.614 ± 0.028

Sequence | protein stability index
GGWFLLTRLGNW | 0.684 ± 0.035
GGWGWGERRSRE | 0.658 ± 0.06
GGWHVVGGEGVG | 0.524 ± 0.0082
GGWSHMHLGLDG | 0.665 ± 0.024
GGYDFRCPCCGV | 0.723 ± 0.025
GHGFPSLPLILS | 0.57 ± 0.076
GHGLLYLIDLCS | 0.638 ± 0.074
GHLCVPWFGLVL | 0.659 ± 0.11
GHRTIPHSNCLS | 0.65 ± 0.0099
GHSLARHRHRGS | 0.701 ± 0.0095
GHSNRDCFGIKC | 0.621 ± 0.024
GHWRQCSVAEGA | 0.643 ± 0.0024
GHYLLCPQGQSD | 0.6675 ± 0.0024
GIARRSHSNETV | 0.766 ± 0.078
GIEAKPLEGKTQ | 0.7026 ± 0.0018
GIGLYMWRNSKW | 0.796 ± 0.04
GIGRGLGGLKSG | 0.617 ± 0.026
GIGRRIGSELSF | 0.668 ± 0.047
GIHFKIHKSSSN | 0.647 ± 0.013
GIKTRTTRVRGE | 0.706 ± 0.018
GILPDSCRSNTG | 0.623 ± 0.081
GILVALGSPLLV | 0.592 ± 0.048
GINRLRNKEKEE | 0.775 ± 0.073
GISGRPDGGRGG | 0.658 ± 0.0071
GKEEGRETGREG | 0.741 ± 0.038

Sequence | protein stability index
GKFKKRIRRGIK | 0.695 ± 0.011
GKGDEPKAPTDR | 0.65 ± 0.028
GKGTRGTRRGGK | 0.632 ± 0.024
GKIKKTTDKILI | 0.639 ± 0.11
GKILSNNQIFKR | 0.702 ± 0.057
GKKNNENKYDMR | 0.7304 ± 0.0051
GKKRANQSRSLP | 0.76 ± 0.19
GKLHKNTDEIET | 0.762 ± 0.062
GKLKVKIYESSK | 0.658 ± 0.061
GKLRGTGGRAGE | 0.669 ± 0.012
GKLWTIIFPLFF | 0.503 ± 0.035
GKPFAWVAVVGD | 0.729 ± 0.051
GKREGRGRKRGG | 0.807 ± 0.092
GKRYLIKKRKKT | 0.698 ± 0.021
GKSESATLMVTV | 0.697 ± 0.18
GKSGGAVRGCGG | 0.657 ± 0.044
GKSGVTGAGEKR | 0.681 ± 0.06
GKSLLPATYDYY | 0.677 ± 0.04
GKTITNENPKGH | 0.705 ± 0.021
GKVSVSGRELGG | 0.65 ± 0.033
GLARPLYALYRR | 0.618 ± 0.081
GLASLTVGAASV | 0.671 ± 0.011
GLATISARYFCL | 0.647 ± 0.064
GLCCFWSYRASR | 0.687 ± 0.035
GLCHFVRLSCFC | 0.5186 ± 0.0024

Sequence | protein stability index
GLCRGHMSTMVD | 0.641 ± 0.064
GLCVLVASCGRG | 0.664 ± 0.15
GLDEVKVVSKKK | 0.689 ± 0.051
GLDHRLALLYPS | 0.736 ± 0.036
GLFCGLGVGTCG | 0.621 ± 0.059
GLGEDVGLGLGW | 0.669 ± 0.051
GLGGNVLRVIFA | 0.561 ± 0.021
GLGLASWGDLEL | 0.739 ± 0.039
GLGLHKDGSTGG | 0.6093 ± 0.003
GLGMWSVRCAGW | 0.649 ± 0.0067
GLHVPLTGFCFC | 0.63 ± 0.02
GLIRGFLRYPGM | 0.691 ± 0.033
GLKWTGLEWHFL | 0.693 ± 0.041
GLLRSHYLDRGF | 0.693 ± 0.047
GLPRFFKNPPVV | 0.6445 ± 0.0043
GLPWRGVGGGSG | 0.719 ± 0.038
GLQPVGLYPFQL | 0.668 ± 0.008
GLRFVPLPLRPV | 0.73 ± 0.029
GLRLFAPRWPQA | 0.713 ± 0.058
GLRLHVQCFGRV | 0.699 ± 0.024
GLSGSPIPFIRL | 0.731 ± 0.021
